Test [1] has as its target M2 protein on influenza A/Puerto Rico/8/34 (H1N1) virus particles (Influenza A virus A/Puerto Rico/8/34 …, UniProt P06821 1-97).
Test [2] has as its target M16. Nature of the test: ELISA, peptide 2 µg/mL, mAb 5 µg/mL.
The target in test [3] is NM12. The test is described as follows: ELISA, peptide 2 µg/mL, mAb 5 µg/mL.
For test [4], the target named is M2e peptide … (23mer synthetic peptide of M2 derived from A/Fort Worth/1/50) (Influenza A virus A/Fort Worth/1/50 (H1N1)). Nature of the test: ELISA, peptide 2 µg/mL, mAb 5 µg/mL.
Test [5] addresses NM7. Nature of the test: ELISA, peptide 2 µg/mL, mAb 5 µg/mL.
The target of test [6] is CM12. Nature of the test: ELISA, peptide 2 µg/mL, mAb 5 µg/mL.
For test [7], the target named is CM17. The test is described as follows: ELISA, peptide 2 µg/mL, mAb 5 µg/mL.
For test [8], the target named is NM8. Nature of the test: ELISA, peptide 2 µg/mL, mAb 5 µg/mL.
Test [9] concerns the target M12. The test is described as follows: ELISA, peptide 2 µg/mL, mAb 5 µg/mL.
Test [10] addresses NM13. The test is described as follows: ELISA, peptide 2 µg/mL, mAb 5 µg/mL.
Test [11] addresses CM14. Nature of the test: ELISA, peptide 2 µg/mL, mAb 5 µg/mL.
Test [12] deals with CM16. Nature of the test: ELISA, peptide 2 µg/mL, mAb 5 µg/mL.
In test [13] the target is NM14. The test is described as follows: ELISA, peptide 2 µg/mL, mAb 5 µg/mL.
Test [14] addresses M15. Nature of the test: ELISA, peptide 2 µg/mL, mAb 5 µg/mL.
Test [15] concerns the target NM17. Nature of the test: ELISA, peptide 2 µg/mL, mAb 5 µg/mL.
The target in test [16] is NM15. Nature of the test: ELISA, peptide 2 µg/mL, mAb 5 µg/mL.
Test [17] addresses CM15. The test is described as follows: ELISA, peptide 2 µg/mL, mAb 5 µg/mL.
The target in test [18] is CM13. Nature of the test: ELISA, peptide 2 µg/mL, mAb 5 µg/mL.
The target in test [19] is M2 protein of A/Hong Kong/483/1997, on cells (Influenza A virus A/Hong Kong/483/97 (H5N1)). The test is described as follows: FACS, supernatant on CHO cells stably expressing M2 of A/Hong Kong/483/97.

Where “and” joins values, the source holds several entries; their conditions need not be identical. Equal values may be shown once.

B1: 8i10 (antibody, V domains shown)
VH: QVQLQESGPGLVKPSETLSLTCTVSGSSISNYYWSWIRQSPGKGLEWIGFIYYGGNTKYNPSLKSRVTISQDTSKSQVSLTMSSVTAAESAVYFCARASCSGGYCILDYWGQGTLVTVS
VL: DIQMTQSPSSLSASVGDRVTITCRASQNIYKYLNWYQQRPGKAPKGLISAASGLQSGVPSRFSGSGSGTDFTLTITSLQPEDFATYYCQQSYSPPLTFGGGTRVEIK
For B1, in [1], the concentration for a half-maximal effect (EC50 (read off the curve)) is roughly 40 ng/mL. For the same molecule, the binding activity (ELISA A450) in test [2] is 0.09; in test [3] it was 0.1; in [4], 0.11; in [5] it was 0.1; in [6] it was 0.14; in test [7], 0.11. Moreover, the binding activity (ELISA A450) in [8] came to 0.1; in test [9] it was 0.09; in test [10], 0.11; in [11], 0.14; in [12] it was 0.13; in test [13], 0.11. In addition, the binding activity (ELISA A450) was found to be 0.09 in test [14]; 0.26 in test [15]; 0.12 in test [16]; 0.12 in test [17]; 0.14 in test [18]. In test [19], the FACS M2-HK MFI was 754 MFI and 1080 MFI.

B2: 23K12 (antibody, V domains shown)
VH: EVQLVESGGGLVQPGGSLRISCAASGFTVSSNYMSWVRQAPGKGLEWVSVIYSGGSTYYADSVKGRFSFSRDNSKNTVFLQMNSLRAEDTAVYYCARCLSRMRGYGLDVWGQGTTVTVS
VL: DIQMTQSPSSLSASVGDRVTITCRTSQSISSYLNWYQQKPGKAPKLLIYAASSLQSGVPSRFSGSGSGTDFTLTISGLQPEDFATYYCQQSYSMPAFGQGTKLEIK
Take B2: in [1], the “EC50 (read off the curve)” value is roughly 60 ng/mL. Moreover, the binding activity (ELISA A450) in test [3] came out at 0.24; in [5], 0.2; in test [6], 0.39; in test [7] it was 0.34; in [8], 0.2; in test [9], 0.2. The binding activity (ELISA A450) in test [10] was 0.25; in [11], 0.36; in [12], 0.35; in test [13], 0.24; in [17], 0.34; in test [18] it was 0.34.

(Values after patent US20130158238A1 (THERACLONE SCIENCES, published 2013).)
